Starred links: 1 amine or outer side, 2 acyl side, 3 side chain; linkers in the order of their positions; H or OH if unused. Positions of bridges follow the written chain, without caps; N, C: chain ends. Non-standard residues stand in square brackets, D forms with d. Groups on a side chain read outwards from the residue. Primed or numbered codes have the meaning given here. *: point of attachment. Ttds = 1,13-diamino-4,7,10-trioxatridecan-succinamic acid spacer, NCCCOCCOCCOCCCNC(=O)CCC(=O)*; APAc″ = 2-(4-(amino)piperidin-1-yl)acetic acid, NC1CCN(CC(=O)*)CC1; DOTA = O=C(O)CN1CCN(CC(=O)O)CCN(CC(=O)*)CCN(CC(=O)O)CC1; Ttds(3) = NCCCOCCOCCOCCCNC(=O)CCC(=O)*; mXylylene = c1cc(C[*:1])cc(C[*:2])c1; tBuAla = CC(C)(C)C[C@H](N)C(=O)O; Aic = NC1(C(=O)O)Cc2ccccc2C1; Pen = CC(C)(S)[C@H](N)C(=O)O; Propanoyl(3-OH) = O=C(CCO)*; Isovaleryl = CC(C)CC(=O)*; dPip = O=C(O)[C@H]1CCCCN1; Ac6c = NC1(C(=O)O)CCCCC1; Nle = CCCC[C@H](N)C(=O)O; 4Amc = not defined here; APAc = not defined here; Ac5c = NC1(C(=O)O)CCCC1; Thp = NC1(C(=O)O)CCOCC1; Apr = not defined here; Bz′ = not defined here; Hexanoyl = CCCCCC(=O)*; AEEA = NCCOCCOCC(=O)O; Aib = CC(C)(N)C(=O)O; Sar = CNCC(=O)O
Biological target: human carbonic anhydrase 9 (CAIX) (human, UniProt Q16790 38-459)
Assay: FACS competition on HT-29 cells against tracer 3BP-2776; pIC50 category A = pIC50 >8.0

Binder	pIC50 [pic50]
Ac-VYCEGDW[tBuAla]TWQC-NH2 (linker 3-12 via mXylylene; SMILES CC(=O)N[C@H](C(=O)N[C@@H](Cc1ccc(O)cc1)C(=O)N[C@H]1CSCc2cccc(c2)CSC[C@@H](C(N)=O)NC(=O)[C@H](CCC(N)=O)NC(=O)[C@H](Cc2c[nH]c3ccccc23)NC(=O)[C@H]([C@@H](C)O)NC(=O)[C@H](CC(C)(C)C)NC(=O)[C@H](Cc2c[nH]c3ccccc23)NC(=O)[C@H](CC(=O)O)NC(=O)CNC(=O)[C@H](CCC(=O)O)NC1=O)C(C)C, also called Ac-Val-Tyr-[Cys(3MeBn)-Glu-Gly-Asp-Trp-Npg-Thr-Trp-Gln-Cys]-NH2) [3BP-3065]	> 8
Ac-VYCE[dPip]DWLTWAC-NH2 (linker 3-12 via mXylylene; SMILES CC(=O)N[C@H](C(=O)N[C@@H](Cc1ccc(O)cc1)C(=O)N[C@H]1CSCc2cccc(c2)CSC[C@@H](C(N)=O)NC(=O)[C@H](C)NC(=O)[C@H](Cc2c[nH]c3ccccc23)NC(=O)[C@H]([C@@H](C)O)NC(=O)[C@H](CC(C)C)NC(=O)[C@H](Cc2c[nH]c3ccccc23)NC(=O)[C@H](CC(=O)O)NC(=O)[C@H]2CCCCN2C(=O)[C@H](CCC(=O)O)NC1=O)C(C)C, also called Ac-Val-Tyr-[Cys(3MeBn)-Glu-pip-Asp-Trp-Leu-Thr-Trp-Ala-Cys]-NH2) [3BP-3283]	> 8
Ac-VYCE[Aib]DWLTWQC-NH2 (linker 3-12 via mXylylene; SMILES CC(=O)N[C@H](C(=O)N[C@@H](Cc1ccc(O)cc1)C(=O)N[C@H]1CSCc2cccc(c2)CSC[C@@H](C(N)=O)NC(=O)[C@H](CCC(N)=O)NC(=O)[C@H](Cc2c[nH]c3ccccc23)NC(=O)[C@H]([C@@H](C)O)NC(=O)[C@H](CC(C)C)NC(=O)[C@H](Cc2c[nH]c3ccccc23)NC(=O)[C@H](CC(=O)O)NC(=O)C(C)(C)NC(=O)[C@H](CCC(=O)O)NC1=O)C(C)C, also called Ac-Val-Tyr-[Cys(3MeBn)-Glu-Aib-Asp-Trp-Leu-Thr-Trp-Gln-Cys]-NH2) [3BP-3059]	> 8
Isovaleryl-YCE[dP]DWLTWSC-NH2 (linker 2-11 via mXylylene; SMILES CC(C)CC(=O)N[C@@H](Cc1ccc(O)cc1)C(=O)N[C@H]1CSCc2cccc(c2)CSC[C@@H](C(N)=O)NC(=O)[C@H](CO)NC(=O)[C@H](Cc2c[nH]c3ccccc23)NC(=O)[C@H]([C@@H](C)O)NC(=O)[C@H](CC(C)C)NC(=O)[C@H](Cc2c[nH]c3ccccc23)NC(=O)[C@H](CC(=O)O)NC(=O)[C@H]2CCCN2C(=O)[C@H](CCC(=O)O)NC1=O, also called Iva-Tyr-[Cys(3MeBn)-Glu-pro-Asp-Trp-Leu-Thr-Trp-Ser-Cys]-NH2) [3BP-3569]	> 8
Ac-YCE[dP]DWLTWE([Apr-DOTA])C-NH2 (linker 2-11 via 3MeBn; reading uncertain, also called Ac-Tyr-[Cys(3MeBn)-Glu-pro-Asp-Trp-Leu-Thr-Trp-Glu(NH-Apr-DOTA′)-Cys]-NH2) [3BP-3841]	> 8
Isovaleryl-ECE[dP]DWLTWSC-NH2 (linker 2-11 via 3MeBn, also called Iva-Glu-[Cys(3MeBn)-Glu-pro-Asp-Trp-Leu-Thr-Trp-Ser-Cys]-NH2) [3BP-3728]	> 8
Isovaleryl-SCE[dP]DWLTWE([Apr-AEEA-DOTA])C-NH2 (linker 2-11 via 3MeBn; reading uncertain, also called Iva-Ser-[Cys(3MeBn)-Glu-pro-Asp-Trp-Leu-Thr-Trp-Glu(NH-Apr-O2Oc-DOTA′)-Cys]-NH2) [3BP-3743]	> 8
Isovaleryl-FCE[dP]DWLTWE([Apr-AEEA-DOTA])C-NH2 (linker 2-11 via 3MeBn; reading uncertain, also called Iva-Phe-[Cys(3MeBn)-Glu-pro-Asp-Trp-Leu-Thr-Trp-Glu(NH-Apr-O2Oc-DOTA′)-Cys]-NH2) [3BP-3742]	> 8
Ac-VYCEGDWLTWQ[Pen]-NH2 (linker 3-12 via mXylylene; SMILES CC(=O)N[C@H](C(=O)N[C@@H](Cc1ccc(O)cc1)C(=O)N[C@H]1CSCc2cccc(c2)CSC(C)(C)[C@@H](C(N)=O)NC(=O)[C@H](CCC(N)=O)NC(=O)[C@H](Cc2c[nH]c3ccccc23)NC(=O)[C@H]([C@@H](C)O)NC(=O)[C@H](CC(C)C)NC(=O)[C@H](Cc2c[nH]c3ccccc23)NC(=O)[C@H](CC(=O)O)NC(=O)CNC(=O)[C@H](CCC(=O)O)NC1=O)C(C)C) [3BP-3064]	> 8
{DOTA-Ttds(3)}-[Nle]YCE[dP]DWLTWSC-NH2 (linker 3-12 via mXylylene, also called DOTA-Ttds-Nle-Tyr-[Cys(3MeBn)-Glu-pro-Asp-Trp-Leu-Thr-Trp-Ser-Cys]-NH2) [3BP-3870]	> 8
{DOTA-APAc}-VYCE[dP]DW[Thp]TWSC-NH2 (linker 3-12 via mXylylene; reading uncertain, also called DOTA-APAc-Val-Tyr-[Cys(3MeBn)-Glu-pro-Asp-Trp-Thp-Thr-Trp-Ser-Cys]-NH2) [3BP-3585]	> 8
{DOTA-APAc}-VYCE[dP]DW[Ac5c]TWSC-NH2 (linker 3-12 via mXylylene; reading uncertain, also called DOTA-APAc-Val-Tyr-[Cys(3MeBn)-Glu-pro-Asp-Trp-Eca-Thr-Trp-Ser-Cys]-NH2) [3BP-3587]	> 8
Hexanoyl-VYCEGDWLTWQC-NH2 (linker 3-12 via mXylylene; SMILES CCCCCC(=O)N[C@H](C(=O)N[C@@H](Cc1ccc(O)cc1)C(=O)N[C@H]1CSCc2cccc(c2)CSC[C@@H](C(N)=O)NC(=O)[C@H](CCC(N)=O)NC(=O)[C@H](Cc2c[nH]c3ccccc23)NC(=O)[C@H]([C@@H](C)O)NC(=O)[C@H](CC(C)C)NC(=O)[C@H](Cc2c[nH]c3ccccc23)NC(=O)[C@H](CC(=O)O)NC(=O)CNC(=O)[C@H](CCC(=O)O)NC1=O)C(C)C) [3BP-3107]	> 8
{DOTA-APAc″}-YCE[dP]DWLTWSC-NH2 (linker 2-11 via mXylylene, also called DOTA-APAc-Tyr-[Cys(3MeBn)-Glu-pro-Asp-Trp-Leu-Thr-Trp-Ser-Cys]-NH2) [3BP-3867]	> 8
Ac-VYCE[Sar]DWLTWQC-NH2 (linker 3-12 via mXylylene; SMILES CC(=O)N[C@H](C(=O)N[C@@H](Cc1ccc(O)cc1)C(=O)N[C@H]1CSCc2cccc(c2)CSC[C@@H](C(N)=O)NC(=O)[C@H](CCC(N)=O)NC(=O)[C@H](Cc2c[nH]c3ccccc23)NC(=O)[C@H]([C@@H](C)O)NC(=O)[C@H](CC(C)C)NC(=O)[C@H](Cc2c[nH]c3ccccc23)NC(=O)[C@H](CC(=O)O)NC(=O)CN(C)C(=O)[C@H](CCC(=O)O)NC1=O)C(C)C, also called Ac-Val-Tyr-[Cys(3MeBn)-Glu-Nmg-Asp-Trp-Leu-Thr-Trp-Gln-Cys]-NH2) [3BP-3060]	> 8
{DOTA}-YCE[dP]DWLTWSC-NH2 (linker 2-11 via mXylylene; SMILES CC(C)C[C@@H]1NC(=O)[C@H](Cc2c[nH]c3ccccc23)NC(=O)[C@H](CC(=O)O)NC(=O)[C@H]2CCCN2C(=O)[C@H](CCC(=O)O)NC(=O)[C@@H](NC(=O)[C@H](Cc2ccc(O)cc2)NC(=O)CN2CCN(CC(=O)O)CCN(CC(=O)O)CCN(CC(=O)O)CC2)CSCc2cccc(c2)CSC[C@@H](C(N)=O)NC(=O)[C@H](CO)NC(=O)[C@H](Cc2c[nH]c3ccccc23)NC(=O)[C@H]([C@@H](C)O)NC1=O, also called DOTA-Tyr-[Cys(3MeBn)-Glu-pro-Asp-Trp-Leu-Thr-Trp-Ser-Cys]-NH2) [3BP-3859]	> 8
{DOTA-AEEA}-YCE[dP]DWLTWSC-NH2 (linker 2-11 via mXylylene; SMILES CC(C)C[C@@H]1NC(=O)[C@H](Cc2c[nH]c3ccccc23)NC(=O)[C@H](CC(=O)O)NC(=O)[C@H]2CCCN2C(=O)[C@H](CCC(=O)O)NC(=O)[C@@H](NC(=O)[C@H](Cc2ccc(O)cc2)NC(=O)COCCOCCNC(=O)CN2CCN(CC(=O)O)CCN(CC(=O)O)CCN(CC(=O)O)CC2)CSCc2cccc(c2)CSC[C@@H](C(N)=O)NC(=O)[C@H](CO)NC(=O)[C@H](Cc2c[nH]c3ccccc23)NC(=O)[C@H]([C@@H](C)O)NC1=O, also called DOTA-O2Oc-Tyr-[Cys(3MeBn)-Glu-pro-Asp-Trp-Leu-Thr-Trp-Ser-Cys]-NH2) [3BP-3869]	> 8

Next, values leading:

pIC50 [pic50]	Binder
> 8	Isovaleryl-DCE[dP]DWLTWSC-NH2 (linker 2-11 via 3MeBn, also called Iva-Asp-[Cys(3MeBn)-Glu-pro-Asp-Trp-Leu-Thr-Trp-Ser-Cys]-NH2) [3BP-3727]
> 8	{Propanoyl(3-OH)}-YCE[dP]DWLTWE([Apr-DOTA])C-NH2 (linker 2-11 via mXylylene; reading uncertain, also called 3OHPr-Tyr-[Cys(3MeBn)-Glu-pro-Asp-Trp-Leu-Thr-Trp-Glu(NH-Apr-DOTA′)-Cys]-NH2) [3BP-3842]
> 8	Isovaleryl-YCE[dP]DWLTWE([Apr-AEEA-DOTA])C-NH2 (linker 2-11 via 3MeBn; reading uncertain, also called Iva-Tyr-[Cys(3MeBn)-Glu-pro-Asp-Trp-Leu-Thr-Trp-Glu(NH-Apr-O2Oc-DOTA′)-Cys]-NH2) [3BP-3740]
> 8	{DOTA-Ttds}-VYCEGDWLTWQC-NH2 (linker 3-12 via mXylylene) [3BP-2959]
> 8	{DOTA-APAc}-VYCE[dP]DW[Aic]TWSC-NH2 (linker 3-12 via mXylylene; reading uncertain, also called DOTA-APAc-Val-Tyr-[Cys(3MeBn)-Glu-pro-Asp-Trp-Aic-Thr-Trp-Ser-Cys]-NH2) [3BP-3586]
> 8	{Propanoyl(3-OH)}-YCE[dP]DWLTWSC-NH2 (linker 2-11 via 3MeBn, also called 3OHPr-Tyr-[Cys(3MeBn)-Glu-pro-Asp-Trp-Leu-Thr-Trp-Ser-Cys]-NH2) [3BP-3730]
> 8	{Bz′}-VYCEGDWLTWQC-NH2 (linker 3-12 via mXylylene) [3BP-3108]
> 8	{DOTA-4Amc}-YCE[dP]DWLTWSC-NH2 (linker 2-11 via mXylylene; reading uncertain, also called DOTA-4Amc-Tyr-[Cys(3MeBn)-Glu-pro-Asp-Trp-Leu-Thr-Trp-Ser-Cys]-NH2) [3BP-3868]
> 8	Ac-YCE[dP]DWLTWSC-NH2 (linker 2-11 via 3MeBn, also called Ac-Tyr-[Cys(3MeBn)-Glu-pro-Asp-Trp-Leu-Thr-Trp-Ser-Cys]-NH2) [3BP-3729]
> 8	{DOTA-APAc}-VYCE[dP]DW[Ac6c]TWSC-NH2 (linker 3-12 via mXylylene; reading uncertain, also called DOTA-APAc-Val-Tyr-[Cys(3MeBn)-Glu-pro-Asp-Trp-Egz-Thr-Trp-Ser-Cys]-NH2) [3BP-3584]
> 8	{DOTA-APAc″}-CE[dP]DWLTWSC-NH2 (linker 1-10 via mXylylene, also called DOTA-APAc-[Cys(3MeBn)-Glu-pro-Asp-Trp-Leu-Thr-Trp-Ser-Cys]-NH2) [3BP-3858]
